Data reported in patent US20250206841A1 (ADEPT THERAPEUTICS, published 2025).
Residue numbers refer to the chain shown, from its start.

B1: 63H3 (antibody, V domains shown)
VH: QEQLKESGGGLVQPGGSLKLSCKASGFDFNSYGVSWVRQAPGKGLEWIAYIYPAFHNAYYANWVNGRFTISSDNAQNTVDLQLNSLTAADTATYFCARDAGGTDYNYNLWGPGTLVTVSS
VL: DVVMTQTPASVEVAVGGTVTLKCQASEDIESYSAWYQQKPGQPPNLLIYEASKLASGVSSRFSGSGYGTEFTLTISGVECADAATYYCQQALTIGNVDNPFGGGSEVVVR
notes: Rabbit-derived clone; LEM construct: VH + rabbit IgG CH1 + human IgG1 CH2-CH3
B2: 65D5 (antibody, V domains shown)
VH: B1 VH with S31A, A58T, N62T, D73H, V79L, D80Y, S85T, G102T, Y107F
VL: DIVMTQTPASVSEPVGGTVTIKCQASQSISSYLAWYQQKPGQPPKLLIYEATKLTSGVSSRFSGSGYGTEFTLTISGVECADAATYYCQQALTVGDVDNPFGGGSEVVVK
notes: as for B1
B3: 66A1 (antibody, V domains shown)
VH: B1 VH with S31N, A58T, N62S, D73H, V79L, D80Y, N106A
VL: DVVMTQTPASVEAAVGGTVSINCQASEDIESYLAWYQQKPGQPPKLLIYKASTLASGVSSRFKGSGSGKQFTLTISGVECADAATYYCQQVLTIGNVDNPFGGGSEVVVK
notes: as for B1

What follows are binders tested against T1, human Trop-2 expressed on cell surface (human, UniProt P09758 27-323) (assay: cell-based or functional assay).
T1 sequence (looked up): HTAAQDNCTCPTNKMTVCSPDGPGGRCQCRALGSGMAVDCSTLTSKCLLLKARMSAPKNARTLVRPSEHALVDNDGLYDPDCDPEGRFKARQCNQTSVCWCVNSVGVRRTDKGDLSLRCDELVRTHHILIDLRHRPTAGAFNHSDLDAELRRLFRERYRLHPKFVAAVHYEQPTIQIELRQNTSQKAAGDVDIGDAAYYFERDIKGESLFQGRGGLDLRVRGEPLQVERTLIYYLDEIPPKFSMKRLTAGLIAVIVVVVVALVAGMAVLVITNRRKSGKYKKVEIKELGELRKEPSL

Row | Binder | Internalization %, MCF-7, 0.25 µg/ml, 1 h [%] | Internalization %, MCF-7, 0.25 µg/ml, 2 h [%] | Internalization %, MCF-7, 0.25 µg/ml, 4 h [%] | Internalization %, MCF-7, 0.5 µg/ml, 1 h [%] | Internalization %, MCF-7, 0.5 µg/ml, 2 h [%] | Internalization %, MCF-7, 0.5 µg/ml, 4 h [%]
1 | B1 | 15 | 26 | 36 | 23 | 37 | 44
2 | B2 | 18 | 36 | 41 | 23 | 41 | 42
3 | B3 | 20 | 36 | 45 | 33 | 45 | 53

These binders were tested against T1, human Trop-2 expressed on cell surface (assay: flow cytometry, MDA-MB-231-GFP cells).
Procedure, shortened: (§1)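 Cells at 10⁶/ml in DPBS/1% FBS were incubated on ice for 1 h with antibodies in 1:3 serial dilutions from 15 μg/mL. Detection used PE anti-human Fc (1:400, 30 min on ice) with 7-AAD viability staining, read by flow cytometry. EC₅₀ from binding curves; anti-HEL hIgG1 isotype control.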

Row | Binder | EC50 [nM]
4 | B1 | 0.02
5 | B2 | 0.01
6 | B3 | 0.01

Target: T2, cynomolgus Trop-2-His protein (cynomolgus, UniProt P09758 27-274 (human entry))
T2 construct: also called cynmolgus Trop-His; Kactus Cat #TRP-CM121; not shown: His tag
T2 chain: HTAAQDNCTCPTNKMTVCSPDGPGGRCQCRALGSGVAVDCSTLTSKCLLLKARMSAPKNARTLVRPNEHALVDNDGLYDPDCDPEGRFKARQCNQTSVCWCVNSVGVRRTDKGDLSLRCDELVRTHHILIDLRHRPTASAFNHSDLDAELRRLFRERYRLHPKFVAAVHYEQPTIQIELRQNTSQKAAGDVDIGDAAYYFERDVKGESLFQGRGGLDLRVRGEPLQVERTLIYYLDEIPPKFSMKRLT
Experiment: ELISA, coated Trop-2 protein
Procedure, shortened: (§2)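 Purified antibodies were checked for binding to human or cynomolgus Trop-2-His protein by ELISA. Maxisorp plates were coated overnight at 4° C with 0.5 μg/ml protein, blocked with PBST/3% BSA, and incubated with serially diluted antibodies. Binding was detected with HRP-conjugated anti-hIgG and TMB, read at 450 nm, and EC₅₀ values were calculated in Graphpad Prism.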

Row | Binder | EC50 [nM]
7 | B1 | 0.033
8 | B2 | 0.015
9 | B3 | 0.014

These binders were tested against T3, human Trop-2-His protein (human, UniProt P09758 27-274) (assay: ELISA, coated Trop-2 protein).
T3 construct: extracellular domain; Assay paragraphs say only 'Trop-2-His'; also called hTrop-2; Kactus Cat #TRP-HM121; not shown: His tag
T3 sequence (looked up): T2 chain with V36M, N67S, S139G, V204I
Procedure, shortened: as §2

Row | Binder | EC50 [nM]
10 | B1 | 0.029
11 | B2 | 0.019
12 | B3 | 0.013

The binders below were run against T1, human Trop-2 expressed on cell surface (assay: flow cytometry, MCF-7 cells).
Procedure, shortened: as §1

Row | Binder | EC50 [nM]
13 | B1 | 0.6
14 | B2 | 0.8
15 | B3 | 0.6

Target: T1, human Trop-2 expressed on cell surface
Experiment: cell-based or functional assay
Remark: another data set of the same source

Row | Binder | EC50 of ADCC (NFAT-CD16 reporter), MCF-7 [nM] | EC50 of ADCC (NFAT-CD16 reporter), MDA-MB-231 [nM]
16 | B1 | 0.17 | 0.03
17 | B2 | 0.32 | 0.05
18 | B3 | 0.22 | 0.06

Target: T1, human Trop-2 expressed on cell surface
Experiment: cell-based or functional assay
Remark: another data set of the same source

Row | Binder | Internalization %, MDA-MB-231, 0.25 µg/ml, 2 h [%] | Internalization %, MDA-MB-231, 0.25 µg/ml, 4 h [%] | Internalization %, MDA-MB-231, 0.5 µg/ml, 2 h [%] | Internalization %, MDA-MB-231, 0.5 µg/ml, 4 h [%] | Internalization %, MDA-MB-231, 1 µg/ml, 2 h [%] | Internalization %, MDA-MB-231, 1 µg/ml, 4 h [%] | Internalization %, MDA-MB-231, 2 µg/ml, 2 h [%] | Internalization %, MDA-MB-231, 2 µg/ml, 4 h [%]
19 | B1 | 40 | 48 | 39 | 45 | 38 | 49 | 37 | 39
20 | B2 | 34 | 51 | 43 | 51 | 37 | 48 | 31 | 41
21 | B3 | 45 | 51 | 46 | 50 | 39 | 49 | 36 | 43
